B1: INTS3 (parent)
chain: EEITEESLEESVGKPLYLIFRNLC

Variants of: B1
Assay: protein stability index of a GFP-peptide fusion (GPS, HEK-293T) (PSI 1-6); higher = more stable
Settings: c terminus: a fixed tail appended
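Note: lentivirally expressed fusions sorted by FACS into six bins by GFP to DsRed ratio, PSI derived from sequencing read proportions per bin multiplied by bin number.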

Row | Variant | protein stability index
1 | EEIGEESLEESVGKPLYLIFRNLC [T4G] | 2.66
2 | EEIQEESLEESVGKPLYLIFRNLC [T4Q] | 2.71
3 | EEIPEESLEESVGKPLYLIFRNLC [T4P] | 2.77
4 | EEIAEESLEESVGKPLYLIFRNLC [T4A] | 2.52
5 | EEIYEESLEESVGKPLYLIFRNLC [T4Y] | 2.29
6 | EEIMEESLEESVGKPLYLIFRNLC [T4M] | 2.23
7 | EEIHEESLEESVGKPLYLIFRNLC [T4H] | 2.99
8 | EEITEMSLEESVGKPLYLIFRNLC [E6M] | 2
9 | EEITEDSLEESVGKPLYLIFRNLC [E6D] | 2.7
10 | EEITEVSLEESVGKPLYLIFRNLC [E6V] | 1.76
11 | EEITETSLEESVGKPLYLIFRNLC [E6T] | 2.02
12 | EEITELSLEESVGKPLYLIFRNLC [E6L] | 1.69
13 | EEITEQSLEESVGKPLYLIFRNLC [E6Q] | 2.56
14 | EEITENSLEESVGKPLYLIFRNLC [E6N] | 2.29
15 | EEITEGSLEESVGKPLYLIFRNLC [E6G] | 2.38
16 | EEITEWSLEESVGKPLYLIFRNLC [E6W] | 1.96
17 | EEITEYSLEESVGKPLYLIFRNLC [E6Y] | 2.39
18 | EEITEHSLEESVGKPLYLIFRNLC [E6H] | 2.44
19 | EEITEASLEESVGKPLYLIFRNLC [E6A] | 2.01
20 | EEITEKSLEESVGKPLYLIFRNLC [E6K] | 1.8
21 | EEITECSLEESVGKPLYLIFRNLC [E6C] | 1.83
22 | EEITESSLEESVGKPLYLIFRNLC [E6S] | 2.27
23 | EEITEISLEESVGKPLYLIFRNLC [E6I] | 2.06
24 | EEITERSLEESVGKPLYLIFRNLC [E6R] | 1.99

Row | Variant | protein stability index
25 | EEITEFSLEESVGKPLYLIFRNLC [E6F] | 2.23
26 | EEITEPSLEESVGKPLYLIFRNLC [E6P] | 2.49
27 | EETTEESLEESVGKPLYLIFRNLC [I3T] | 2.9
28 | EECTEESLEESVGKPLYLIFRNLC [I3C] | 2.65
29 | EELTEESLEESVGKPLYLIFRNLC [I3L] | 3
30 | EEMTEESLEESVGKPLYLIFRNLC [I3M] | 3.29
31 | EEVTEESLEESVGKPLYLIFRNLC [I3V] | 3.16
32 | EEQTEESLEESVGKPLYLIFRNLC [I3Q] | 3.36
33 | EENTEESLEESVGKPLYLIFRNLC [I3N] | 3.25
34 | EEWTEESLEESVGKPLYLIFRNLC [I3W] | 2.18
35 | EEATEESLEESVGKPLYLIFRNLC [I3A] | 3.14
36 | EEFTEESLEESVGKPLYLIFRNLC [I3F] | 2.79
37 | EEGTEESLEESVGKPLYLIFRNLC [I3G] | 3.13
38 | EEKTEESLEESVGKPLYLIFRNLC [I3K] | 3.04
39 | EEYTEESLEESVGKPLYLIFRNLC [I3Y] | 2.1
40 | EEHTEESLEESVGKPLYLIFRNLC [I3H] | 3.67
41 | EEETEESLEESVGKPLYLIFRNLC [I3E] | 3.82
42 | EEDTEESLEESVGKPLYLIFRNLC [I3D] | 3.3
43 | EEPTEESLEESVGKPLYLIFRNLC [I3P] | 3.2
44 | EESTEESLEESVGKPLYLIFRNLC [I3S] | 2.84
45 | EERTEESLEESVGKPLYLIFRNLC [I3R] | 2.94
46 | EEITEECLEESVGKPLYLIFRNLC [S7C] | 2.56
47 | EEITEEDLEESVGKPLYLIFRNLC [S7D] | 2.87
48 | EEITEEFLEESVGKPLYLIFRNLC [S7F] | 2.33

Row | Variant | protein stability index
49 | EEITEELLEESVGKPLYLIFRNLC [S7L] | 2.33
50 | EEITEEALEESVGKPLYLIFRNLC [S7A] | 2.88
51 | EEITEEGLEESVGKPLYLIFRNLC [S7G] | 2.75
52 | EEITEEKLEESVGKPLYLIFRNLC [S7K] | 2.55
53 | EEITEEHLEESVGKPLYLIFRNLC [S7H] | 3.13
54 | EEITEEELEESVGKPLYLIFRNLC [S7E] | 2.77
55 | EEITEEILEESVGKPLYLIFRNLC [S7I] | 2.47
56 | EEITEEMLEESVGKPLYLIFRNLC [S7M] | 2.47
57 | EEITSESLEESVGKPLYLIFRNLC [E5S] | 2.5
58 | EEITVESLEESVGKPLYLIFRNLC [E5V] | 1.72
59 | EEITMESLEESVGKPLYLIFRNLC [E5M] | 1.89
60 | EEITPESLEESVGKPLYLIFRNLC [E5P] | 1.98
61 | EEITDESLEESVGKPLYLIFRNLC [E5D] | 2.72
62 | EEITCESLEESVGKPLYLIFRNLC [E5C] | 2.14
63 | EEITGESLEESVGKPLYLIFRNLC [E5G] | 2.09
64 | EEITAESLEESVGKPLYLIFRNLC [E5A] | 2.4
65 | EEITNESLEESVGKPLYLIFRNLC [E5N] | 2.64
66 | EEITFESLEESVGKPLYLIFRNLC [E5F] | 1.61
67 | EEITTESLEESVGKPLYLIFRNLC [E5T] | 2.37
68 | EEITIESLEESVGKPLYLIFRNLC [E5I] | 1.56
69 | EEITWESLEESVGKPLYLIFRNLC [E5W] | 1.85
70 | EEITLESLEESVGKPLYLIFRNLC [E5L] | 2.1
71 | EEITQESLEESVGKPLYLIFRNLC [E5Q] | 2.37
72 | EEITYESLEESVGKPLYLIFRNLC [E5Y] | 2.03

Row | Variant | protein stability index
73 | EEITHESLEESVGKPLYLIFRNLC [E5H] | 2.62
74 | EEITRESLEESVGKPLYLIFRNLC [E5R] | 1.96
75 | EEITKESLEESVGKPLYLIFRNLC [E5K] | 2.31
76 | EFITEESLEESVGKPLYLIFRNLC [E2F] | 2.38
77 | ECITEESLEESVGKPLYLIFRNLC [E2C] | 2.48
78 | ETITEESLEESVGKPLYLIFRNLC [E2T] | 2.68
79 | EYITEESLEESVGKPLYLIFRNLC [E2Y] | 1.69
80 | EAITEESLEESVGKPLYLIFRNLC [E2A] | 1.98
81 | EIITEESLEESVGKPLYLIFRNLC [E2I] | 1.91
82 | EDITEESLEESVGKPLYLIFRNLC [E2D] | 2.86
83 | EKITEESLEESVGKPLYLIFRNLC [E2K] | 2.02
84 | EHITEESLEESVGKPLYLIFRNLC [E2H] | 2.32
85 | EMITEESLEESVGKPLYLIFRNLC [E2M] | 2.1
86 | EPITEESLEESVGKPLYLIFRNLC [E2P] | 2.51
87 | EGITEESLEESVGKPLYLIFRNLC [E2G] | 2.56
88 | ERITEESLEESVGKPLYLIFRNLC [E2R] | 2.93
89 | ESITEESLEESVGKPLYLIFRNLC [E2S] | 2.58
90 | EVITEESLEESVGKPLYLIFRNLC [E2V] | 2.35
91 | ENITEESLEESVGKPLYLIFRNLC [E2N] | 2.9
92 | ELITEESLEESVGKPLYLIFRNLC [E2L] | 2.11
93 | EWITEESLEESVGKPLYLIFRNLC [E2W] | 1.74
94 | EQITEESLEESVGKPLYLIFRNLC [E2Q] | 2.52

From the supplement of paper PMC10567573
